Laboratory results as given in patent US20110288276A1 (AstraZeneca / MedImmune, published 2011).

Key:
[1] = molecular target: T1, Human FcRn (soluble human neonatal Fc receptor) (human, UniProt P55899 24-290; P61769 21-119, limits assumed); assay: SPR (BIAcore 3000), ratio of steady-state Kd values, pH 6.0
T1 construct: also called soluble human FcRn
From the text: (§1) The interaction of soluble human FcRn with immobilized unmutated human Fc and Fc/YTE was monitored by surface plasmon resonance detection using a BIAcore 3000 instrument (GE Healthcare, Piscataway, N.J.). Unmutated human Fc and Fc/YTE were first coupled to the dextran matrix of a CM5 sensor chip (GE Healthcare) using an Amine Coupling Kit at a surface density of between 4139 and 4291 RU according to the manufacturer's instructions. Human FcRn was used in equilibrium binding experiments at concentrations ranging from 1.46 nM to 3 uM at a flow rate of 5 uL/min. Dilutions and binding experiments were carried out at 25° C. in phosphate buffered saline (PBS), pH 6.0 containing 0.05% Tween 20. Steady-state binding data were collected for 50 min. Both Fc surfaces were regenerated with six 1-min injection of PBS, pH 7.4 containing 0.05% Tween 20. Human FcRn was also allowed to flow over an uncoated cell. The sensorgrams from these blank runs were then subtracted from those obtained with Fc-coupled chips. Dissociation constants (Kds) were determined by fitting the corresponding binding isotherms.

[2] = molecular target: T1, Human FcRn (soluble human neonatal Fc …); assay: SPR (BIAcore 3000), Fc amine-coupled to CM5 chip, soluble human FcRn 1.46 nM to 3 uM, steady-state binding isotherm, PBS pH 6.0 with 0.05% Tween 20, 25 C; error is SD of 2 experiments
From the text: as §1
^a Affinity measurements were carried out by BIAcore as described in Materials and Methods. Errors were estimated as the standard deviations of 2 independent experiments for each interacting pair.

T1 sequence (P55899 24-290 limits assumed, chain 1 of 2): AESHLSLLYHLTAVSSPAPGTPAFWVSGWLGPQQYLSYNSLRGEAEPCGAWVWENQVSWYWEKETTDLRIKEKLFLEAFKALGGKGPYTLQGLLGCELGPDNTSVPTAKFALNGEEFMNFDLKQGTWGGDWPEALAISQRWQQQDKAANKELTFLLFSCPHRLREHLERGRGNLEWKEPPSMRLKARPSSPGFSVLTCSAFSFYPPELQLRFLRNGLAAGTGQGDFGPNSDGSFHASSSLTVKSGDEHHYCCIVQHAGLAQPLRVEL
T1 sequence (P61769 21-119 limits assumed, chain 2 of 2): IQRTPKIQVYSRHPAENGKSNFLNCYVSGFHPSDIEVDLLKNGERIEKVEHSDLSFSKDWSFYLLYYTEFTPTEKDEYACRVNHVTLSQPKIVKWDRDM

B1: Fc/YTE (human IgG1 Fc fragment containing the M252Y/S254T/T256E triple substitution) (other)
chain: GGPSVFLFPPKPKDTLYITREPEVTCVVVDVSHEDPEVKFNWYVDGVEVHNAKTKPREEQYNSTYRVVSVLTVLHQDWLNGKEYKCKVSNKALPAPIEKTISKAKGQPREPQVYTLPPSREEMTKNQVSLTCLVKGFYPSDIAVEWESNGQPENNYKTTPPVLDSDGSFFLYSKLTVDKSRWQQGNVFSCSVMHEALHNHYTQKSLSLS
modifications: one branched N-linked carbohydrate chain attached to N297 (EU numbering)
notes: Fc portion (heavy chain residues 223-447, EU) of MEDI-524 with M252Y/S254T/T256E, expressed in HEK 293 cells; It consists of two chemically identical polypeptides with at least one interchain disulfide at C226 and/or C229; In the assay it was amine-coupled to a CM5 chip; also called human IgG Fc variant; YTE-modified human Fc
- fold higher binding affinity than the unmutated human Fc [1]: ~8 fold
- Kd [2]: 72 nM
